Results as given in PMC12305717.
Residue numbers refer to the chain shown, from its start. In names and notes the source's numbering stands. Values belong to the binder of their own block, whether it stands above or below them.

Assays:
[1] = target: Ssa1 (yeast cytosolic Hsp70) (yeast) (UniProt P10591)
[2] = target: Ssa1 (yeast cytosolic Hsp70) (yeast) (UniProt P10591); remark: listed apart in the source
[3] = target: DnaK (E. coli Hsp70) (E. coli) (UniProt P0A6Y8)
Chain of DnaK (E. coli Hsp70) (E. coli) (P0A6Y8 whole entry): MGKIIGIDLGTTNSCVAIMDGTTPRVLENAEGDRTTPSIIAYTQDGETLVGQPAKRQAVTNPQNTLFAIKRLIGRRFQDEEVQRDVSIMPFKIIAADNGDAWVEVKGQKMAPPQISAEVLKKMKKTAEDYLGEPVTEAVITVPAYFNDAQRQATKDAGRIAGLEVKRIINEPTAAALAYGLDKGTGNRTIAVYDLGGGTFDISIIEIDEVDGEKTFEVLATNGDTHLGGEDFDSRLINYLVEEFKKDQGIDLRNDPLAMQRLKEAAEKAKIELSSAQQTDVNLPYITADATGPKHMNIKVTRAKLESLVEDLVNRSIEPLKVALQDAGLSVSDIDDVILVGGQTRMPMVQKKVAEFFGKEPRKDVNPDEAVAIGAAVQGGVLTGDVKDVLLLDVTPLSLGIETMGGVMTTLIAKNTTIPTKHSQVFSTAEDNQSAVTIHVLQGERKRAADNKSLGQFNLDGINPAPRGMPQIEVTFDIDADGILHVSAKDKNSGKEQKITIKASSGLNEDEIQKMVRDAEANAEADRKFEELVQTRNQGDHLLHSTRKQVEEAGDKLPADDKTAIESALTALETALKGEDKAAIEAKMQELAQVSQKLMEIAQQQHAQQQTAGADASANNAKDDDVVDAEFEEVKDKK

Chain of Ssa1 (yeast cytosolic Hsp70) (yeast) (P10591 whole entry): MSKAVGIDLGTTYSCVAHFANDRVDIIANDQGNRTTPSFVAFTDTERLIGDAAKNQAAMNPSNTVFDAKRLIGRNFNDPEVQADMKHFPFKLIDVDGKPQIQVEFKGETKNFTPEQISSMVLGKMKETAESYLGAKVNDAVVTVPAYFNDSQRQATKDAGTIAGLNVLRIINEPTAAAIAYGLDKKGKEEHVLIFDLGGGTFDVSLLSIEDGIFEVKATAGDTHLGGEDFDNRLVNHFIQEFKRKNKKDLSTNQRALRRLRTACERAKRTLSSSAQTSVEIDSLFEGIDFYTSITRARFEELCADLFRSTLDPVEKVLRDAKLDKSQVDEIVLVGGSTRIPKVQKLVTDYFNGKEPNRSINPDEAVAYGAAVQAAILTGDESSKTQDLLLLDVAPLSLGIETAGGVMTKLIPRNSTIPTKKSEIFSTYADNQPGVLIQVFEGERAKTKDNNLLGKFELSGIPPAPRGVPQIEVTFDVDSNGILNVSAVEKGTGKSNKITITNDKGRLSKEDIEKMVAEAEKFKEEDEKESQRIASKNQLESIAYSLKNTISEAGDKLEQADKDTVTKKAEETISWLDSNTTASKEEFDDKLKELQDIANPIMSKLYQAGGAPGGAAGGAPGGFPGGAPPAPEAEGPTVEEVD

EC50 of Sse1 for raising the yields of disaggregation and refolding (luciferase activity after 2 h) of pre-aggregated MlucV or luciferase by 4000 nM Ssa1 + 1000 nM Sis1 with ATP [1]: 100 nM
IC50 of excess Sse1 (above 250 nM) for inhibiting the disaggregation and refolding reaction of 4000 nM Ssa1 + 1000 nM Sis1; complete inhibition at equimolar Sse1 and Ssa1 [1]: 1200 nM
optimal concentration of WT Sse1 for activating the disaggregation/refolding of pre-aggregated luciferase by 6000 nM Ssa1 + 1000 nM Sis1 [2]: 600 nM
B1: Sse1 (yeast Hsp110), wild type (natural protein)
chain: MSTPFGLDLGNNNSVLAVARNRGIDIVVNEVSNRSTPSVVGFGPKNRYLGETGKNKQTSNIKNTVANLKRIIGLDYHHPDFEQESKHFTSKLVELDDKKTGAEVRFAGEKHVFSATQLAAMFIDKVKDTVKQDTKANITDVCIAVPPWYTEEQRYNIADAARIAGLNPVRIVNDVTAAGVSYGIFKTDLPEGEEKPRIVAFVDIGHSSYTCSIMAFKKGQLKVLGTACDKHFGGRDFDLAITEHFADEFKTKYKIDIRENPKAYNRILTAAEKLKKVLSANTNAPFSVESVMNDVDVSSQLSREELEELVKPLLERVTEPVTKALAQAKLSAEEVDFVEIIGGTTRIPTLKQSISEAFGKPLSTTLNQDEAIAKGAAFICAIHSPTLRVRPFKFEDIHPYSVSYSWDKQVEDEDHMEVFPAGSSFPSTKLITLNRTGDFSMAASYTDITQLPPNTPEQIANWEITGVQLPEGQDSVPVKLKLRCDPSGLHTIEEAYTIEDIEVEEPIPLPEDAPEDAEQEFKKVTKTVKKDDLTIVAHTFGLDAKKLNELIEKENEMLAQDKLVAETEDRKNTLEEYIYTLRGKLEEEYAPFASDAEKTKLQGMLNKAEEWLYDEGFDSIKAKYIAKYEELASLGNIIRGRYLAKEEEKKQAIRSKQEASQMAAMAEKLAAQRKAEAEKKEEKKDTEGDVDMD

concentration at which excess Sse1-K69M inhibits the disaggregation/refolding by 6000 nM Ssa1 + 1000 nM Sis1, against WT Sse1 (fold lower than WT Sse1) [2]: 4
optimal concentration of Sse1-K69M for activating the disaggregation/refolding of pre-aggregated luciferase by 6000 nM Ssa1 + 1000 nM Sis1 [2]: 200 nM
B2: Sse1-K69M (natural protein)
chain: B1 chain with K69M

EC50 of GrpE for raising the yields of disaggregation and refolding of pre-aggregated MlucV by 4000 nM DnaK + 1000 nM DnaJ [3]: 200 nM
B3: GrpE (E. coli nucleotide exchange factor) (natural protein)
chain: MSSKEQKTPEGQAPEEIIMDQHEEIEAVEPEASAEQVDPRDEKVANLEAQLAEAQTRERDGILRVKAEMENLRRRTELDIEKAHKFALEKFINELLPVIDSLDRALEVADKANPDMSAMVEGIELTLKSMLDVVRKFGVEVIAETNVPLDPNVHQAIAMVESDDVAPGNVLGIMQKGYTLNGRTIRAAMVTVAKAKA
